Results from patent US20230057012A1 (SCHOLAR ROCK, published 2023).

What was measured:
[1] = target: T1, human LRRC33-proTGFβ1 complex (human, UniProt Q86YC3 19-650; P01137 30-390, limits assumed); experiment: SPR Biacore; Fab
T1 construct: Purified recombinant, biotinylated antigen complex; also called hLRRC33-proTGFβ1; LLC
Procedure: (§1) Surface plasmon resonance (SPR) was used to measure binding kinetics using a BIACORE® system. […] Experiments were carried out with eight types of LLCs, namely, hLTBP1-proTGFβ1, mLTBP1-proTGFβ1, hLTBP3-proTGFβ1, mLTBP3-proTGFβ1, hGARP-proTGFβ1, mGARP-proTGFβ1, hLRRC33-proTGFβ1 and mLRRC33-proTGFβ1.
(§2) A BIACORE® system was employed to determine the monovalent binding affinity and the kinetic parameters for antigen binding of test antibodies. The binding kinetics were evaluated by surface plasmon resonance using Biacore 8K (GE Healthcare). A Biotin CAP sensor chip was used to capture the biotinylated antigens. […] Multi-cycle kinetics was employed where each analyte concentration was injected in a separate cycle and the sensor chip surface was regenerated after each cycle. All the assays were carried out in freshly prepared 1× HBS-EP+ buffer (10 mM HEPES, 150 mM NaCl, 3 mM EDTA, 0.05% Tween20, pH 7.4). Data for all the analyte concentrations for each interaction were fit globally to a 1:1 binding model to obtain the kinetic parameters. The Sensorgram for 0 nM analyte concentration was used as reference.

[2] = target: T2, murine LRRC33-proTGFβ1 complex (mouse; human, UniProt Q8BMT4 20-651, limits assumed); experiment: SPR Biacore; Fab
T2 construct: As for m5; also called mLRRC33-proTGFβ1; LLC
Procedure: as §1, §2

[3] = target: endogenous LTBP-proTGFβ1 of LN229 cells (human); experiment: cell-based or functional assay
[4] = target: T3, murine GARP-proTGFβ1 complex (mouse; human, UniProt G3XA59 18-628; P01137 30-390, limits assumed); experiment: ELISA, purified hIgG4 titrated from about 0.002 to 100 nM, readout RLU, panel mGARP-TGFb1
T3 construct: As for m5; also called mGARP-proTGFβ1; LLC

[5] = target: T4, murine LTBP3-proTGFβ1 complex (mouse; human, UniProt Q61810 41-1245; P01137 30-390, limits assumed); experiment: ELISA, purified hIgG4 titrated from about 0.002 to 100 nM, readout RLU, panel mLTBP3-TGFb1
T4 construct: also called mLTBP3-proTGFβ1; LLC

[6] = target: T5, murine LTBP1-proTGFβ1 complex (mouse; human, UniProt Q8CG19 339-1712; P01137 30-390, limits assumed); experiment: ELISA, purified hIgG4 titrated from about 0.002 to 100 nM, readout RLU, panel mLTBP1-TGFb1
T5 construct: also called mLTBP1-proTGFβ1; LLC

[7] = target: T6, human LTBP3-proTGFβ1 complex (human, UniProt Q9NS15 44-1303; P01137 30-390, limits assumed); experiment: ELISA, purified hIgG4 titrated from about 0.002 to 100 nM, readout RLU, panel hLTBP3-TGFb1
T6 construct: Purified recombinant, biotinylated antigen complex; also called hLTBP3-proTGFβ1; LLC

[8] = target: T7, human GARP-proTGFβ1 complex (human, UniProt Q14392 18-627; P01137 30-390, limits assumed); experiment: ELISA, purified hIgG4 titrated from about 0.002 to 100 nM, readout RLU, panel hGARP-TGFb1
T7 construct: Purified recombinant, biotinylated antigen complex; also called hGARP-proTGFβ1; LLC

[9] = target: T8, human LTBP1-proTGFβ1 complex (human, UniProt Q14766 347-1721; P01137 30-390, limits assumed); experiment: ELISA, purified hIgG4 titrated from about 0.002 to 100 nM, readout RLU, panel hLTBP1-TGFb1
T8 construct: also called hLTBP1-proTGFβ1; large latent complex (LLC)

[10] = target: T7, human GARP-proTGFβ1 complex; experiment: SPR Biacore; Fab
Procedure: as §1, §2

[11] = target: T8, human LTBP1-proTGFβ1 complex; experiment: SPR Biacore; Fab
Procedure: as §1, §2

[12] = target: T5, murine LTBP1-proTGFβ1 complex; experiment: SPR Biacore; Fab
Procedure: as §1, §2

[13] = target: T4, murine LTBP3-proTGFβ1 complex; experiment: SPR Biacore; Fab
Procedure: as §1, §2

[14] = target: T6, human LTBP3-proTGFβ1 complex; experiment: SPR Biacore; Fab
Procedure: as §1, §2

[15] = target: T3, murine GARP-proTGFβ1 complex; experiment: SPR Biacore; Fab
Procedure: as §1, §2

[16] = target: T8, human LTBP1-proTGFβ1 complex; experiment: SPR (Biacore), binding to Human LTBP1-ProTGFβ1, Fab at 0.625-10 nM
Procedure: as §2
Binding kinetics was evaluated by surface plasmon resonance using a BIACORE® 8K (GE) instrument. Biotinylated antigens were captured on a Biotin CAP chip and the Fab fragments of the antibodies were used as analytes. Sensorgrams for Fab binding at variable concentrations (0.6-10 nM) were globally fit to obtain the kinetic parameters.

T1 sequence (Q86YC3 19-650 limits assumed, chain 1 of 2): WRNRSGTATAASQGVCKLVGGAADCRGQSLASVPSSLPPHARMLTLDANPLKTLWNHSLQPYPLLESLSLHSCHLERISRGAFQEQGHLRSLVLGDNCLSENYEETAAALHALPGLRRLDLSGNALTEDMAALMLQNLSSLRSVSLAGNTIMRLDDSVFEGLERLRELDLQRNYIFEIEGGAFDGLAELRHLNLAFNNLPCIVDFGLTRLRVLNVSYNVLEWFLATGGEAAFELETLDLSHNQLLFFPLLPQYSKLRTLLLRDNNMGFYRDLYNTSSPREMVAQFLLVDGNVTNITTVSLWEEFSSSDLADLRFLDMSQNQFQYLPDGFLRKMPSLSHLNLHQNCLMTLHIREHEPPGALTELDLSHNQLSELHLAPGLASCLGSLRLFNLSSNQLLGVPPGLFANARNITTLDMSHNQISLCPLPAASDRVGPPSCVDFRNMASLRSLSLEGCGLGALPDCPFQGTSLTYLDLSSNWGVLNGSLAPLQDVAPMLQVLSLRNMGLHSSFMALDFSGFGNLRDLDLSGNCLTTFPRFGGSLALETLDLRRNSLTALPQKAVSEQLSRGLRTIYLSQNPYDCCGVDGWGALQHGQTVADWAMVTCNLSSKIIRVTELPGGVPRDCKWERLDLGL
T1 sequence (P01137 30-390 limits assumed, chain 2 of 2): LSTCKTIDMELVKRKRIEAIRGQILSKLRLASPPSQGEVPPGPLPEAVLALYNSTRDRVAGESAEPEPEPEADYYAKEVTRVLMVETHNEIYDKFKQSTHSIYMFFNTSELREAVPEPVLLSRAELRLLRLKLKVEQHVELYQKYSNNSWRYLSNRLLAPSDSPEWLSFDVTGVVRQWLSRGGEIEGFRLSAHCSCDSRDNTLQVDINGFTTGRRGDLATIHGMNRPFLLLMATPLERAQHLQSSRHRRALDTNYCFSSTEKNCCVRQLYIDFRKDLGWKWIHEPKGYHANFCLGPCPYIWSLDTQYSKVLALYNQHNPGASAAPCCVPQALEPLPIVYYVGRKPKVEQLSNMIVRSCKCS
T2 sequence (Q8BMT4 20-651 limits assumed, chain 1 of 2): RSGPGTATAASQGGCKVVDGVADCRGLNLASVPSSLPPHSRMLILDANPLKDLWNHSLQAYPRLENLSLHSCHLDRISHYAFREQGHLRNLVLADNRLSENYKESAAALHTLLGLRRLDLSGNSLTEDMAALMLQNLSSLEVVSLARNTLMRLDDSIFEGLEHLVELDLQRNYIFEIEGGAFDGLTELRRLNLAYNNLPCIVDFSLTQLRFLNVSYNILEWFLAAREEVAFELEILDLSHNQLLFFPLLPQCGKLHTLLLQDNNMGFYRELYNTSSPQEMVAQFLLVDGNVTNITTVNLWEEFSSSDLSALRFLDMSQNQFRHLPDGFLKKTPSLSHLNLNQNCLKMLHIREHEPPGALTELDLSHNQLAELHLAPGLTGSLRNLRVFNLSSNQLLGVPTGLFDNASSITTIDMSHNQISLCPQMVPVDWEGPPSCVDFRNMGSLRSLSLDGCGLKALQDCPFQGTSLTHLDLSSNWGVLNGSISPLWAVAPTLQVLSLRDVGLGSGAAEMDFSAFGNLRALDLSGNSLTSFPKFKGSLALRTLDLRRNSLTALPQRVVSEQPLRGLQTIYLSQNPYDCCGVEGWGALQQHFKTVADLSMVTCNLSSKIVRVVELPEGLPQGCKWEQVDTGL
T2 sequence (chain, as listed by the source limits assumed, chain 2 of 2): as the sequence (P01137 30-390 limits assumed, chain 2 of 2) above
T8 sequence (Q14766 347-1721 limits assumed, chain 1 of 2): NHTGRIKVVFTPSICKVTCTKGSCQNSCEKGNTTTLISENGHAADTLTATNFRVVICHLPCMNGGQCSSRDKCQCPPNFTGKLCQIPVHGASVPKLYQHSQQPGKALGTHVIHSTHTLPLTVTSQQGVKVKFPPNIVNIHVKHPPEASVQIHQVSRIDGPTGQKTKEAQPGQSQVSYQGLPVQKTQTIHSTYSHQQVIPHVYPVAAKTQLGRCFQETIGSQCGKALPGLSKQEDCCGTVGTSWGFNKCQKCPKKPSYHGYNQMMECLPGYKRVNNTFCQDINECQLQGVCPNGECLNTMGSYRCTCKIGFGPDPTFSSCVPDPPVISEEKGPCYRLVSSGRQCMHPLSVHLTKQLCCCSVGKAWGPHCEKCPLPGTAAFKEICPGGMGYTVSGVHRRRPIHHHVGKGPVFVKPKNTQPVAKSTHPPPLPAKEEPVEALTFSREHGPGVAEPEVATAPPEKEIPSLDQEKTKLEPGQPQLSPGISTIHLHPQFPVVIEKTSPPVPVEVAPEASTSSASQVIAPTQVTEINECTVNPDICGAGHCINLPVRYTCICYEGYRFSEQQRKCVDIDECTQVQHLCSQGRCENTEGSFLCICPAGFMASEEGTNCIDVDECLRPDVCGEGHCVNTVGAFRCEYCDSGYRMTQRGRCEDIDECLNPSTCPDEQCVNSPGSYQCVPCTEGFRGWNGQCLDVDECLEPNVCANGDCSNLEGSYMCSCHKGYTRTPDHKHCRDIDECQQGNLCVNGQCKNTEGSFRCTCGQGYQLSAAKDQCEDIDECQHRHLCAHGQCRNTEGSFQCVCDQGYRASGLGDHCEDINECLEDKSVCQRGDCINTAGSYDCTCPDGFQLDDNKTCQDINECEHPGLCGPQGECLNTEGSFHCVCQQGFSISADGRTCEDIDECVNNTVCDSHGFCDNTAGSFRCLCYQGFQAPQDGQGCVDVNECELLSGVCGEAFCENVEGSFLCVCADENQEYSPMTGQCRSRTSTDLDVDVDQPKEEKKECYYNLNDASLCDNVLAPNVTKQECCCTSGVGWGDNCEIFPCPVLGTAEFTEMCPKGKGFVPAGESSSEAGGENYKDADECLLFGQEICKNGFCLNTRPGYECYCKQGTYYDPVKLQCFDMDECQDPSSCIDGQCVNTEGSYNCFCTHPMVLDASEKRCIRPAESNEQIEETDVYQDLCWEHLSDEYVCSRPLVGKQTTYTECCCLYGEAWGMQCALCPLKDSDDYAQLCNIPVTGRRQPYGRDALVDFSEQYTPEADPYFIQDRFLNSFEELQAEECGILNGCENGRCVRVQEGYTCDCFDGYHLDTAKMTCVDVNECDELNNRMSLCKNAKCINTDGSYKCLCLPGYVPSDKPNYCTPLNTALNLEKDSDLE
T8 sequence (P01137 30-390 limits assumed, chain 2 of 2): as the sequence (P01137 30-390 limits assumed, chain 2 of 2) above
T3 sequence (G3XA59 18-628 limits assumed, chain 1 of 2): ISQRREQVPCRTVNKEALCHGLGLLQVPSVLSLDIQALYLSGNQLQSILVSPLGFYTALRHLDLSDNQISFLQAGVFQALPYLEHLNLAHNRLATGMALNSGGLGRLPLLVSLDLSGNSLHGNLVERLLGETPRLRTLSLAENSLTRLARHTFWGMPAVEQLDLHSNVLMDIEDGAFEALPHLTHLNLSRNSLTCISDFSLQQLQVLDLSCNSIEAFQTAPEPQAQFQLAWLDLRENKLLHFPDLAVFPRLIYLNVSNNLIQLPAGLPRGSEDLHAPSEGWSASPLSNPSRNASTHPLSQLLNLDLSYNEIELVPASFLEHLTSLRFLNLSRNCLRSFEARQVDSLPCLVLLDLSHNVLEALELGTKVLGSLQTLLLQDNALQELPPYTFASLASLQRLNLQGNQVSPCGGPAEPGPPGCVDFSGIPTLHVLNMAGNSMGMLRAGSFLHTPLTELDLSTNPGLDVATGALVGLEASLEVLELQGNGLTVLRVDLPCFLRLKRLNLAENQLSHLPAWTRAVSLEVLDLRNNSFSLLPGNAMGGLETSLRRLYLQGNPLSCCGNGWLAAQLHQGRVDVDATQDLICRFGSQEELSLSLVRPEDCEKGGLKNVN
T3 sequence (P01137 30-390 limits assumed, chain 2 of 2): as the sequence (P01137 30-390 limits assumed, chain 2 of 2) above
T6 sequence (Q9NS15 44-1303 limits assumed, chain 1 of 2): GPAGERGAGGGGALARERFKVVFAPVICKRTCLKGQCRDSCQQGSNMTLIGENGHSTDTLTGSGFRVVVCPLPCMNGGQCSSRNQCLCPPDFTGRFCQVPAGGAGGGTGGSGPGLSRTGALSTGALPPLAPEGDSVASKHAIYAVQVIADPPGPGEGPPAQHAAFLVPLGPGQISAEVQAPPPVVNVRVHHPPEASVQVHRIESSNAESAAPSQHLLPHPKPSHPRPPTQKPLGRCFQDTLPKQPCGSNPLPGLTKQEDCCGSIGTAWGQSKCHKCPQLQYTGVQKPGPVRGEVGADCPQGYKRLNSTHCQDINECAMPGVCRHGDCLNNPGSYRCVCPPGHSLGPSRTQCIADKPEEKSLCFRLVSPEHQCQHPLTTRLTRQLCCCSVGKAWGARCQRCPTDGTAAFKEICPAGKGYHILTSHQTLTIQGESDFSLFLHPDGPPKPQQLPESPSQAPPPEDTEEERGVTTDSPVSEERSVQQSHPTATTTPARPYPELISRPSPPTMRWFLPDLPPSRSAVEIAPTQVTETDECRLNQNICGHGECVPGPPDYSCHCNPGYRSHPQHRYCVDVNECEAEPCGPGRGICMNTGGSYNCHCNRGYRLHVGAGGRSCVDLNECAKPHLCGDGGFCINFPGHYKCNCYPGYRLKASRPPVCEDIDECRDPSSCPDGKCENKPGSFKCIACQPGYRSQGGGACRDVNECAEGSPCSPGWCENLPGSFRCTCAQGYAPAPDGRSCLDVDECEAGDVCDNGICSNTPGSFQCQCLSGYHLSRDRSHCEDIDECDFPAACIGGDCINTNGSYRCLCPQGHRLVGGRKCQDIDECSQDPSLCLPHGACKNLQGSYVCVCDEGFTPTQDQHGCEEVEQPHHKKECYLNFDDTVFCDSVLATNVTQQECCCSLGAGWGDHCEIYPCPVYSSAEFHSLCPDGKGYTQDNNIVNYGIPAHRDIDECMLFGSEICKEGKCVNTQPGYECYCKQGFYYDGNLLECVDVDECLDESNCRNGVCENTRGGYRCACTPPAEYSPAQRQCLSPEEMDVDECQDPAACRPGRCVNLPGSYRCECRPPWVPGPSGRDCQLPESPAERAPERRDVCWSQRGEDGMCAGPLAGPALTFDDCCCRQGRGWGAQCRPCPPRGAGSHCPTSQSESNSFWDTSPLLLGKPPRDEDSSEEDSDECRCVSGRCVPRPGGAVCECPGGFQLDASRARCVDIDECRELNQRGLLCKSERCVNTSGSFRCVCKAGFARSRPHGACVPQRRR
T6 sequence (P01137 30-390 limits assumed, chain 2 of 2): as the sequence (P01137 30-390 limits assumed, chain 2 of 2) above

B1: Ab42 Fab (Fab, V domains shown)
VH: QVQLVESGGGVVQPGRSLRLSCAASGFTFRSYVMHWVRQAPGKGLEWVAVISHEGSLKYYADSVKGRFTISRDNSKNTLYLQMNSLRAEDTAVYYCARPRIAARRGGFGYWGQGTLVTVSS
VL: NFMLTQPHSVSESPGKTVTISCTRSSGNIDNNYVQWYQQRPGSSPTTVIYEDNQRPSGVPDRFSGSIDSSSNSASLTISGLKTEDEADYYCQSYDYDTQGVVFGGGTKLTVL
Fold difference (affinity relative to Ref) [1]: 81 fold | Kd [1]: 0.123 nM | koff [1]: 0.000123 s⁻¹ | kon [1]: 1e+06 M⁻¹ s⁻¹ | Fold difference (affinity relative to Ref) [2]: 74 fold | Kd [2]: 0.114 nM | koff [2]: 0.000123 s⁻¹ | kon [2]: 1.08e+06 M⁻¹ s⁻¹

B2: Ab46 hIgG4 (antibody, V domains shown)
VH: EVQLLESGGGLVQPGGSLRLSCAASGFTFADYAMTWVRQAPGKGLEWVSAISGSGAATYFADSVKGRFTISRDNSKNTLYLQMNSLRAEDTAVYYCARVSSGHWDYDYWGQGTLVTVSS
VL: DIQLTQSPSSLSASVGDRVTITCRASQSISSYLNWYQQKPGKAPKLLIYAASGLESGVPSRFSGSGSGTDFTLTISSLQPEDFATYYCQQTYGVPLTFGGGTKVEIK
notes: hIgG4 immunoglobulin; also called Ab46 (mAb)
mAb IC50 (nM); cell-based potency assay [3]: 0.95 nM | EC50 (read off the curve) [4]: ~0.2 nM | EC50 (read off the curve) [5]: ~0.2 nM | EC50 (read off the curve) [6]: ~0.2 nM | EC50 (read off the curve) [7]: ~0.2 nM | EC50 (read off the curve) [8]: ~0.3 nM | EC50 (read off the curve) [9]: ~0.3 nM

B3: Ab46 Fab (Fab, V domains shown)
VH: EVQLLESGGGLVQPGGSLRLSCAASGFTFADYAMTWVRQAPGKGLEWVSAISGSGAATYFADSVKGRFTISRDNSKNTLYLQMNSLRAEDTAVYYCARVSSGHWDYDYWGQGTLVTVSS
VL: DIQLTQSPSSLSASVGDRVTITCRASQSISSYLNWYQQKPGKAPKLLIYAASGLESGVPSRFSGSGSGTDFTLTISSLQPEDFATYYCQQTYGVPLTFGGGTKVEIK
notes: Fab fragment
Fold difference (affinity relative to Ref) [10]: 53 fold | Fold difference (affinity relative to Ref) [11]: 134 fold | Fold difference (affinity relative to Ref) [12]: 123 fold | Fold difference (affinity relative to Ref) [13]: 91 fold | Fold difference (affinity relative to Ref) [1]: 118 fold | Fold difference (affinity relative to Ref) [14]: 72 fold | Fold difference (affinity relative to Ref) [15]: 69 fold | Fold difference (affinity relative to Ref) [2]: 95 fold | fAb IC50 (nM); cell-based potency assay [3]: 0.723 nM | t1/2 [16]: 2.18 h
